T1: DL3W33, Recombinant Human DLL1 ECD (Ser22-Gly540), -DI-C-6xHis (human, UniProt O00548 22-540)
T1 construct: also called huDLL1; TPP000049465
T1 sequence: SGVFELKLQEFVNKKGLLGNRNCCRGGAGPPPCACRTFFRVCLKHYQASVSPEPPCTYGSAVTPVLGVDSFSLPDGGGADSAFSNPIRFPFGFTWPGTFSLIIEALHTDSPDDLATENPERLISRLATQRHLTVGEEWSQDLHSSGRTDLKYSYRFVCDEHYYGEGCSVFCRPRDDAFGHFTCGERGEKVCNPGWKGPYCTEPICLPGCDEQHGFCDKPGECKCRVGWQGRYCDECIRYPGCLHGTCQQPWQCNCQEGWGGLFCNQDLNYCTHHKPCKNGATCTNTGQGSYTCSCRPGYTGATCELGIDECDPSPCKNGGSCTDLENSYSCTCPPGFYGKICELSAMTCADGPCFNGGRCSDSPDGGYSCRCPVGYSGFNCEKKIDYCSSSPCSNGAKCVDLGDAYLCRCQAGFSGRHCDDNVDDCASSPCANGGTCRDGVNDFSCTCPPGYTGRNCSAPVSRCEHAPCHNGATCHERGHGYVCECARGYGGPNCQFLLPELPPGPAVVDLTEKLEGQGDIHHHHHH

T2: recombinant human DLL3 (Example 9, construct not named) (human, UniProt Q9NYJ7 27-492, limits assumed)
T2 construct: also called DLL3 antigen
T2 sequence: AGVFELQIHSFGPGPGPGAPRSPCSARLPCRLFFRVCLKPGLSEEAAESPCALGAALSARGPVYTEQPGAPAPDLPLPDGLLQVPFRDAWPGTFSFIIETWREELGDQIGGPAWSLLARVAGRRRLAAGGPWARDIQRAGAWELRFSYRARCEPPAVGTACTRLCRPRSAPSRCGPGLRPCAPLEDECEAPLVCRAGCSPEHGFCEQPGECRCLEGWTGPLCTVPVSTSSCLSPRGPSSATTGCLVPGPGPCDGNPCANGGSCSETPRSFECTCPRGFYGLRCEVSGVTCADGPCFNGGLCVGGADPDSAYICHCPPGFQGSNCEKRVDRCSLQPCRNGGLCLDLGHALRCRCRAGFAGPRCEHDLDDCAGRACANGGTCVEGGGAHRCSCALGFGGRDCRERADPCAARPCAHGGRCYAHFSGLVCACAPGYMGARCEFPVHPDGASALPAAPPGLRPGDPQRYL

T3: CD3W147, homodimeric CD3εγ-Fc (biotinylated)
T3 construct: also called recombinant CD3; biotinylated CD3W147
T3 chain: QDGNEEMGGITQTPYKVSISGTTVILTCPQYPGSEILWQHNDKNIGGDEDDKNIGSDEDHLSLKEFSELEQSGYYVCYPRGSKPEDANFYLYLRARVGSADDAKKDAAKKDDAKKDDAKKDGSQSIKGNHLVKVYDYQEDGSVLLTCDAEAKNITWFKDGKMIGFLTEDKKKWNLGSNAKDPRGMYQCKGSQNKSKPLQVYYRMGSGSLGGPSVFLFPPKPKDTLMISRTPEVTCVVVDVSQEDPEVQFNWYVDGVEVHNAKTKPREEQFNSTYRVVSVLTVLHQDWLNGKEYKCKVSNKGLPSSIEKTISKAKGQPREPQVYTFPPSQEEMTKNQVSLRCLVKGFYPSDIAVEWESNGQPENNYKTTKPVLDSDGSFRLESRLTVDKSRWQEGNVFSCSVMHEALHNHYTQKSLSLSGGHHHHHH

B1: DL3B575 (Fc fusion)
scFv: DIVMTQSPLSSPVTLGQPASISCRSSQSLVHSDGNTYLNWLQQRPGQPPRLLIYQISNPFSGVPDRFSGSGAGTDFTLKISRVEAEDVGVYYCMQATQFPHTFGPGTKVEIKGGSEGKSSGSGSESKSTGGSQVQLVQSGAEVKKPGSSVKVSCKASGGTLSSYVISWVRQAPGQGLEWMGGIIPIFGTANYAQKFQDRVTITADKSTNTAYMELTSLTSEDTAVYYCARDPFSDLWGRGTMVTVSS
notes: also called DL3B461 scFv-Fc; not shown: wild-type IgG1 Fc domain
B2: D3C3B80 (bispecific antibody, human IgG1, lambda, L234A L235A)
scFv: DIQMTQSPSSLSASVGDRVTITCRASQGISNYLAWFQQKPGKAPKSLIYAASSLQSGVPSKFSGSGSGTDFTLTISSLQPEDFATYYCQQYNSYPYTFGQGTKLEIKGGSEGKSSGSGSESKSTGGSQVQLVQSGAEVKKPGASVKVSCKASGQTFTNYYIHWVRQAPGQGLEWMGIINPSGGSTSYAQKLQGRMTMTRDTSTSTVYMELSSLRSEDTAVYFCARQGPFIGDAFDIWGQGTTVTVSSEPKSSDKTHTCPPCPAPEAAGGPSVFLFPPKPKDTLMISRTPEVTCVVVSVSHEDPEVKFNWYVDGVEVHNAKTKPREEQYNSTYRVVSVLTVLHQDWLNGKEYKCKVSNKALPAPIEKTISKAKGQPREPQVYVLPPSREEMTKNQVSLLCLVKGFYPSDIAVEWESNGQPENNYLTWPPVLDSDGSFFLYSKLTVDKSRWQQGNVFSCSVMHEALHNHYTQKSLSLSPGK
heavy: QVQLQQSGPRLVRPSQTLSLTCAISGDSVFNNNAAWSWIRQSPSRGLEWLGRTYYRSKWLYDYAVSVKSRITVNPDTSRNQFTLQLNSVTPEDTALYYCARGYSSSFDYWGQGTLVTVSSASTKGPSVFPLAPSSKSTSGGTAALGCLVKDYFPEPVTVSWNSGALTSGVHTFPAVLQSSGLYSLSSVVTVPSSSLGTQTYICNVNHKPSNTKVDKKVEPKSCDKTHTCPPCPAPEAAGGPSVFLFPPKPKDTLMISRTPEVTCVVVSVSHEDPEVKFNWYVDGVEVHNAKTKPREEQYNSTYRVVSVLTVLHQDWLNGKEYKCKVSNKALPAPIEKTISKAKGQPREPQVYVYPPSREEMTKNQVSLTCLVKGFYPSDIAVEWESNGQPENNYKTTPPVLDSDGSFALVSKLTVDKSRWQQGNVFSCSVMHEALHNHYTQKSLSLSPGK
light: QSALTQPASVSGSPGQSITISCTGTSSNIGTYKFVSWYQQHPDKAPKVLLYEVSKRPSGVSSRFSGSKSGNTASLTISGLQAEDQADYHCVSYAGSGTLLFGGGTKLTVLGQPKAAPSVTLFPPSSEELQANKATLVCLISDFYPGAVTVAWKADSSPVKAGVETTTPSKQSNNKYAASSYLSLTPEQWKSHRSYSCQVTHEGSTVEKTVAPTECS
notes: DLL3 arm: DL3B279 variant LH-scFv-Fc (ZW); CD3 arm: CD3B376-K477-Fab-Fc; also called CD3B376-Fab
B3: DL3W35, extracellular domain of human DLL3 linked to a C-terminal 6xHis-Tag and a linker (ligand)
chain: AGVFELQIHSFGPGPGPGAPRSPCSARLPCRLFFRVCLKPGLSEEAAESPCALGAALSARGPVYTEQPGAPAPDLPLPDGLLQVPFRDAWPGTFSFIIETWREELGDQIGGPAWSLLARVAGRRRLAAGGPWARDIQRAGAWELRFSYRARCEPPAVGTACTRLCRPRSAPSRCGPGLRPCAPLEDECEAPLVCRAGCSPEHGFCEQPGECRCLEGWTGPLCTVPVSTSSCLSPRGPSSATTGCLVPGPGPCDGNPCANGGSCSETPRSFECTCPRGFYGLRCEVSGVTCADGPCFNGGLCVGGADPDSAYICHCPPGFQGSNCEKRVDRCSLQPCRNGGLCLDLGHALRCRCRAGFAGPRCEHDLDDCAGRACANGGTCVEGGGAHRCSCALGFGGRDCRERADPCAARPCAHGGRCYAHFSGLVCACAPGYMGARCEFPVHPDGASALPAAHPGGGSGGGSGGGSHHHHHH
notes: also called human DLL3 ECD; huDLL3
B4: DL3W34, human DLL4 ECD (Ser27-Pro524), C-10xHis (ligand)
chain: SGVFQLQLQEFINERGVLASGRPCEPGCRTFFRVCLKHFQAVVSPGPCTFGTVSTPVLGTNSFAVRDDSSGGGRNPLQLPFNFTWPGTFSLIIEAWHAPGDDLRPEALPPDALISKIAIQGSLAVGQNWLLDEQTSTLTRLRYSYRVICSDNYYGDNCSRLCKKRNDHFGHYVCQPDGNLSCLPGWTGEYCQQPICLSGCHEQNGYCSKPAECLCRPGWQGRLCNECIPHNGCRHGTCSTPWQCTCDEGWGGLFCDQDLNYCTHHSPCKNGATCSNSGQRSYTCTCRPGYTGVDCELELSECDSNPCRNGGSCKDQEDGYHCLCPPGYYGLHCEHSTLSCADSPCFNGGSCRERNQGANYACECPPNFTGSNCEKKVDRCTSNPCANGGQCLNRGPSRMCRCRPGFTGTYCELHVSDCARNPCAHGGTCHDLENGLMCTCPAGFSGRRCEVRTSIDACASSPCFNRATCYTDLSTDTFVCNCPYGFVGSRCEFPVGLPHHHHHHHHHH
notes: also called huDLL4; TPP0000494661
B5: CD3W245-HL-E.c. (scFv)
scFv: EVQLVESGGGLVKPGGSLRLSCAASGFTFSRYNMNWVRQAPGKGLEWVSSISTSSNYIYYADSVKGRFTFSRDNAKNSLDLQMSGLRAEDTAIYYCTRGWGPFDYWGQGTLVTVSSGTEGKSSGSGSESKSTDIQMTQSPSSLSASVGDRVTITCRARQSIGTAIHWYQQKPGKAPKLLIKYASESISGVPSRFSGSGSGTDFTLTISSLQPEDFATYYCQQSGSWPYTFGQGTKLEIKGPGGQHHHHHHGAYPYDVPDYAS
notes: Tested as E. coli supernatant; also called CD3W245 scFv-HL; CD3W245 scFv HL expressed in E. coli

The target in assay [1] is T1, DL3W33, Recombinant Human DLL1 ECD …. Kind of assay: SPR (ProteOn), antibody captured by anti-Fc; DLL1 at 100 nM and 1000 nM.
Description: (§1) The association and dissociation were monitored for 5 and 30 minutes, respectively, using a flow rate of 50 μL/min. Kinetic information (on-rate and off-rate constants) were extracted by fitting sensorgrams to the 1:1 Langmuir binding model. Binding affinity (KD) are reported as the ratio of rate constants (koff/kon).
In assay [2] the target is B4. Description: SPR (ProteOn), antibody captured by anti-Fc; DLL4 at 100 nM and 1000 nM.
Description: as §1
The target of assay [3] is B3. Kind of assay: SPR (ProteOn), antibody captured by anti-Fc, DLL3 (DL3W35) titrated.
Description: as §1
Assay [4] addresses T4, DL3W36, human DLL3 EGF6 domain+C-term ECD sequence, HSA Fusion and C-term 6 His tag (human).
T4 construct: Fusion with the C34S variant of human serum albumin, plus 6xHis; also called EGF-6 and C-terminal fusion domain; EGF6 + Cterm
Description: MSD plate binding assay on coated DLL3 domain-HSA fusions.
Description: The plates were washed with PBS with 0.1% Tween and then blocked with Starting block solution for 30 minutes. […] Antigen bound antibody was detected with sulfo-tagged anti-human antibody (Meso Scale Discovery, R32AJ) for 60 minutes at ambient temperature followed by another PBS wash. Signal acquisition was done in the presence of 1× MSD read buffer T (MSD, Cat #R92TC-1) on the MSD Sector 600 imager with appropriate plate settings. Data was analyzed for the highest binding signal per domain indicating the preferential domain binding.

Assay [5] has as its target T5, human CD3 (CD3 epsilon as part of the T cell receptor complex) on cells (human, UniProt P07766 23-207).
T5 construct: also called CD3 on Jurkat cells; CD3 on human pan T cells
Kind of assay: flow cytometry on human T cells (sheet title 'T cells', GEO Mean against concentration; assay as told in p-1138). (In general: A flow cytometer gives signals particle by particle.)
Description: Human Pan T Cells (Biological Specialty Corporation, Colmar, PA) were thawed and transferred to a 15 mL conical with DPBS (Dulbecco's Phosphate Saline Buffer). The cells were centrifuged 1300 rpm for 5 minutes. DPBS was aspirated and the cells were re-suspended in DPBS. The cells were counted using the Vi-cell XR cell viability analyzer and were plated at 100K/well in 100 μL DPBS. The plate was centrifuged 1200 rpm for 3 minutes and washed 2× with DPBS. The cells were stained with Violet Live/Dead stain (Thermo-Fisher) and incubated at RT in the dark for 25 min. The cells were centrifuged and washed 2× with FACS staining buffer (BD Pharmingen). Test antibodies were diluted to a final starting concentration of 100 nM in FACS staining buffer and 3-fold serial dilutions were prepared from the starting concentration for a total of 10 dilution points. The serially diluted test antibodies (100 uL/well) were added to the cells and incubated for 30 min at 37°. […] Cells were washed 2× with FACS staining buffer and re-suspended in 100 uL FACS Buffer. Cells were run on BD Celesta using FACS Diva software and analyzed using FlowJo software.

Assay [6] has as its target T2, recombinant human DLL3 (Example 9, …). Kind of assay: SPR (Biacore T200), antibody captured by goat anti-Fc on a C1 chip, DLL3 titrated. Background: Surface plasmon resonance follows binding to a sensor surface in real time, without labels.
Description: The binding affinity of anti-DLL3×CD3 antibodies to the recombinant human DLL3 was determined by surface plasmon resonance (SPR) using a Biacore T200 instrument. […] The association was monitored for 2 minutes and the and dissociation for 5 or 60 minutes, using a flow rate of 100 μL/min. Raw binding data was referenced by subtracting the analyte binding signals from blanks and analyzed using a 1:1 Langmuir binding model using the Biacore Insight evaluation software to obtain the kinetics which were used to calculate the binding affinity.
Assay [7] deals with T6, DL3B574.
T6 construct: also called DL3B450 scFv-Fc; not shown: wild-type IgG1 Fc domain
Kind of assay: SPR (ProteOn), antibody captured by anti-Fc, DLL3 (DL3W35) titrated.

Assay [8] deals with T6, DL3B574. Kind of assay: SPR (ProteOn), antibody captured by anti-Fc; DLL4 at 100 nM and 1000 nM.
Description: as §1
In assay [9] the target is T3, CD3W147, homodimeric CD3εγ-Fc. Kind of assay: ELISA, biotinylated CD3W147 immobilized, scFv in E. coli supernatant.
Description: Protein expression was induced by addition of 1 mM IPTG and cultures were grown overnight. After expression, cells were pelleted by centrifugation at 2,200×g for 5 min and supernatants were collected and tested directly for binding to biotinylated CD3W147 by ELISA.
Biotinylated CD3W147 was immobilized on the plate in concentrations ranging from 0.039 μg/mL to 2.5 μg/mL in 2-fold dilutions followed by incubation at room temperature for 45 min. Bound scFv was detected using chicken anti-HA-horseradish peroxidase and then detected with chemiluminescence substrate.

The values below come from patent US20240025992A1 (Janssen / Centocor, published 2024).

One may read the Kd as a measure of binding affinity in units of concentration.

T4 sequence (chain, as listed by the source limits assumed): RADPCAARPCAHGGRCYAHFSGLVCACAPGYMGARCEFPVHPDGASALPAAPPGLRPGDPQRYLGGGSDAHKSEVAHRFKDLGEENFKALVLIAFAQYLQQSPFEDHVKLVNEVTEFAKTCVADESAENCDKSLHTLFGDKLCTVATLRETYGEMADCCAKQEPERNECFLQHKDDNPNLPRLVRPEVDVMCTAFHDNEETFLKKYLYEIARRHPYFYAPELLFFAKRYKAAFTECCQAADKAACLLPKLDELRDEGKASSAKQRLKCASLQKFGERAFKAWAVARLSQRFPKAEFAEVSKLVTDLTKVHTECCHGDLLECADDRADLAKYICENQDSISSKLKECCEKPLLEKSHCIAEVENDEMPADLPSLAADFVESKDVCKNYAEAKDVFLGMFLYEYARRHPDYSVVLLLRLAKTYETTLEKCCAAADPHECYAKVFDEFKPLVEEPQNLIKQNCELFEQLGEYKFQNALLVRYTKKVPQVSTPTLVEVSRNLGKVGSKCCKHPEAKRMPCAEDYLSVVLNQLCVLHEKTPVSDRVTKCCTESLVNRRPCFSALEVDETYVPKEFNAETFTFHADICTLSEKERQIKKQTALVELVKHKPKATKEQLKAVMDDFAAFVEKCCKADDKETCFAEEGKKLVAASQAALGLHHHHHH
T5 sequence (P07766 23-207 limits assumed, one chain of several): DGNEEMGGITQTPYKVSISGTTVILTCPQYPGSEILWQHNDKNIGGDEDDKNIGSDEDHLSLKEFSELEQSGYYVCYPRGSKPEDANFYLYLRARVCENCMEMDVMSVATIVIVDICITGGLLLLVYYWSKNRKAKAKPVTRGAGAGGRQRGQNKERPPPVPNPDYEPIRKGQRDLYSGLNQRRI

As to B1, the binding result in [1] is listed as “no binding (tested: 1000 nM)”; in assay [2] it was “no binding (tested: 1000 nM)”; in [4], “binds”. This molecule also gave a Kd in assay [3] of 0.31 nM. In the case of B2, in assay [5], the binding result is on record as “binds”. In assay [6], the Kd turned out to be 0.033 nM. For B3, the Kd in the assay with DL3B574 [7] turned out to be 2.37 nM. As for B4, in the assay with DL3B574 [8], the binding result is listed as “no binding (tested: 1000 nM)”. With B5, in [9], the binding result is given as “binds”.
